According to patent publication US20110045003A1 (SYNOVEX, published 2011):
Substitutions are numbered along the chain they refer to. Names and notes keep the numbering of the source.

T1: recombinant Cad-11 EC1 human IgG1 fusion protein (R&D Systems Cat. No. 1790-CA-050) (human, UniProt P55287 54-617, limits assumed)
T1 construct: Bought protein; the catalogue product may hold more of the extracellular region; also called recombinant human Cad-11 EC1; recombinant human Cad-11 fusion protein; not shown: human IgG1 part of the bought fusion protein
T1 sequence: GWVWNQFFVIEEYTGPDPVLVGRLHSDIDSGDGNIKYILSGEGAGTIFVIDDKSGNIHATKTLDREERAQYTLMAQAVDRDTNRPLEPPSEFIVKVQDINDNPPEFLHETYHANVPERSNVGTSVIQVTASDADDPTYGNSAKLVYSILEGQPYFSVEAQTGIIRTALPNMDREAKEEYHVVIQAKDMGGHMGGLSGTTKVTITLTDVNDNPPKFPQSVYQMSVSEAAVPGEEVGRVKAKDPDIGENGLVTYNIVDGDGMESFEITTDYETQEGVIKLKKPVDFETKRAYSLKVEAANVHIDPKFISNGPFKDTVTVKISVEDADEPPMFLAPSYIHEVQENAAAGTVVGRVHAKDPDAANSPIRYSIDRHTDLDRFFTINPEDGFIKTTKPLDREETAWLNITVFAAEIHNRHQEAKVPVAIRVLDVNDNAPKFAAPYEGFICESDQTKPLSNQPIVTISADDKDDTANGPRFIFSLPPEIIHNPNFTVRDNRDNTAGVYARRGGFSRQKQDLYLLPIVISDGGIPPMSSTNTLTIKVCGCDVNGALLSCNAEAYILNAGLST

T2: BSA coupled 37-mer Cad-11 peptide encompassing the Cad-11 immunogen (UniProt P55287 54-90, limits assumed, linked to BSA)
T2 construct: domain: 37-mer peptide encompassing the Cad-11 immunogen; also called Cad-11 antigen; Cad-11 peptide immunogen
T2 peptide (looked up): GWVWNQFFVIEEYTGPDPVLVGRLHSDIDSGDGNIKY

B1: humanized anti-Cad-11 antibody SDP031 (Vκ1/VH3) (antibody, IgG4, V domains shown)
VH: EVQLVQSGAEVKKPGASVKISCKASGYSFTGYFMNWVRQAPGQGLEWIGRINPYTGDTFYNQKFKGRATLTVDKSTSTAYMELSSLRSEDTAVYYCGRLGSRYWYFDVWGQGTTVTVSS
VL: DVLMTQTPLSSPVTLGQPASISCRSSQSIIHSNGNTYLEWYLQKPGQSPQLLIYKVSNRFSGVPDRFTGSGSGTDFTLKISRVEAEDVGVYYCFQGSHVPWTFGQGTKLEIK
notes: humanized IgG4 (S241P), kappa
B2: humanized anti-Cad-11 antibody SDP061 (Vκ2/VH1) (antibody, IgG4, V domains shown)
VH: B1 VH with A9P, V11L, R38K, P41H, T76S, S84V, R87S, T91S
VL: B1 VL with T68S
notes: humanized IgG4 (S241P), kappa
B3: humanized anti-Cad-11 antibody SDP071 (Vκ2/VH2) (antibody, IgG4, V domains shown)
VH: B1 VH with R38K
VL: B1 VL with T68S
notes: humanized IgG4 (S241P), kappa

Legend:
[1] = biological target: human Cadherin-11 protein expressed on 431-D-11 cells (human) (UniProt P55287); experiment: cell-based or functional assay
[2] = biological target: T1, recombinant Cad-11 EC1 human IgG1 …; experiment: competition ELISA on coated recombinant human Cad-11 EC1 fusion protein; competitor biotinylated SYN0012 at 0.1 µg/ml, streptavidin-HRP, OD450
Protocol: (§1) The binding of the purified humanized composite variant antibodies (SDP011 to SDP151) to a recombinant Cad-11 EC1 human IgG1 fusion protein was assessed in a competition binding ELISA. A dilution series from 5 μg/ml to 0.0022 μg/ml of the humanized or control (SYN0012/H1M1) antibodies was premixed with a constant concentration of biotinylated murine anti-Cad-11 antibody, SYN0012/H1M1 (0.1 μg/ml, final concentration), before incubating for 1 hour at room temperature on a Nunc Immuno MaxiSorp 96 well flat bottom microtitre plate (Fisher Cat. No. DIS-971-030J) pre-coated with 0.25 μg/ml recombinant human Cad-11 EC1 (R&D Systems Cat. No. 1790-CA-050) diluted in PBS. The binding of the biotinylated mAb was detected with streptavidin-HRP (Sigma Cat. No. 55512) and tetramethylbenzidine (TMB) substrate (Invitrogen Cat. No. 00-2023).

[3] = biological target: T1, recombinant Cad-11 EC1 human IgG1 …; experiment: competition ELISA on coated recombinant human Cad-11 EC1 fusion; competitor biotinylated SYN0012/H1M1 at 0.1 µg/ml
Protocol: as §1
The relative IC50 was calculated by dividing the value for the test antibody by that of SYN0012. Antibody expression levels given are for static cultures in T flasks. PI are calculated.

[4] = biological target: T2, BSA coupled 37-mer Cad-11 peptide …; experiment: ELISA, BSA-coupled 37-mer cadherin peptide coated at 500 ng/ml, antibody titrated, A450
Protocol: Reactibind plates (ThermoScientific) were coated with 500 ng/ml of the BSA coupled cadherin 37-mer peptide (NE peptide) corresponding to Cadherins-7, -8, -9, -11, -18, -20, and -24 in 0.05% Tween (EMD, product code 9480) in PBS (pH 7.2) (Gibco(Invitrogen), #20012) at 100 μl volume/well for overnight at 4° C. The peptide containing solution was removed from the well and the plate blocked with a 2% bovine serum albumin (BSA) in PBS, 200 μl volume/well, for 2 h at 22° C. The plate was then washed twice with 200 μl/well of PBS-Tween 0.05% at 22° C. and blotted dry. A dilution series from 5 μg/ml to 8 ng/ml in a volume of 100 μl/well of each the humanized anti-Cad-11 antibodies were incubated in the peptide coated wells and incubated at 22° C. for 1 hr. Antibody solution was removed from the wells and the plate washed twice with 200 μl/well of 0.05% Tween-PBS at 22° C. and blotted dry. The goat-anti mouse IgG (Pierce # 31432) was added to each well to plate at a 1:1000 dilution, 100 μl/well and incubate at 22° C. for 30 min. The secondary antibody solution was removed and the plate washed twice with 200 μl/well of 0.05% Tween-PBS at 22° C. and blotted dry. The reaction was developed by adding 100 μl/well tetramethylbenzidine (TMB) reagent IgG (Pierce # 34022, 1 step Turbo TMB-ELISA) to plate and developed at 22° C. for 5 min.

[5] = biological target: T2, BSA coupled 37-mer Cad-11 peptide …; experiment: ELISA on BSA coupled 37-mer cadherin peptides, coat 500 ng/ml
Protocol: A dilution series from 5 μg/ml to 8 ng/ml in a volume of 100 μl/well of each the humanized anti-Cad-11 antibodies were incubated in the peptide coated wells and incubated at 22° C. for 1 hr. Antibody solution was removed from the wells and the plate washed twice with 200 μl/well of 0.05% Tween-PBS at 22° C. and blotted dry. The goat-anti mouse IgG (Pierce # 31432) was added to each well to plate at a 1:1000 dilution, 100 μl/well and incubate at 22° C. for 30 min. The secondary antibody solution was removed and the plate washed twice with 200 μl/well of 0.05% Tween-PBS at 22° C. and blotted dry. The reaction was developed by adding 100 μl/well tetramethylbenzidine (TMB) reagent IgG (Pierce # 34022, 1 step Turbo TMB-ELISA) to plate and developed at 22° C. for 5 min.
The greatest cross reactivity was seen against Cad-8. […] This assay was repeated with the Cad-11, Cad-8 and Cad-18 antigens with a lower antigen coat concentration of 50 ng/ml and a wider dilution series of the SDP051 antibody (FIG. 41B). […] An EC50 for Cad-18 could not be established due to the low level of binding observed.

Row | Molecule | in vitro cell aggregation assay [1] [µg/mL] | IC50 (read off the curve) [2] [µg/mL] | relative IC50 (IC50 of the test antibody divided by that of SYN0012) [3] | EC50 (read off the curve) [4] [µg/mL] | fold greater binding to the Cad-11 antigen than to the related antigens from the other cadherins [5] [fold]
1 | human Cad-11-EC1-hIgG2-Fc1 fusion protein (Fc fusion) | 3 |  |  |  | 
2 | B1 |  | ~0.2 | 0.84 ratio (column head prints µg/mL) | ~0.06 | > 20
3 | B2 |  |  | 0.47 ratio (column head prints µg/mL) | ~0.06 | > 20
4 | B3 |  |  | 0.33 ratio (column head prints µg/mL) | ~0.07 | > 20
